Drawing on the Immune Epitope Database (IEDB), this text covers Kd for eleven sequences.

For one test, the target named is HLA-A*01:01. Nature of the test: IEDB peptide-MHC binding, purified MHC/direct/fluorescence; filed as Kd, often an IC50 or EC50 that approximates it; ≥ and ≤ were set here for values at or beyond the usual limits of such assays.
Test [1] has as its target HLA-A*02:01. The test is described as above. To be noted: source organism: Marburg virus - Musoke, Kenya, 1980.
Another test has as its target HLA-A*03:01. The test is described as above. The settings on record: source organism: Marburg virus - Musoke, Kenya, 1980.
The target in test [2] is HLA-A*11:01. The test is described as above. The settings on record: source organism: Marburg virus - Musoke, Kenya, 1980.
The target in test [3] is HLA-A*26:01. Described as above. To be noted: source organism: Ravn virus - Ravn, Kenya, 1987.
In test [4] the target is HLA-A*26:02. Described as above. To be noted: source organism: Ravn virus - Ravn, Kenya, 1987.
The target in a further test is HLA-A*26:03. Described as above.
Another test addresses HLA-A*31:01. The test is described as above.
Another test deals with HLA-A*68:02. Described as above.
The target of a further test is HLA-A*69:01. Described as above.
The target of a further test is HLA-B*07:02. The description is as above.
The target of a further test is HLA-B*08:01. The test is described as above. To be noted: source organism: Ravn virus - Ravn, Kenya, 1987.
A further test concerns the target HLA-B*08:03. The description is as above.
A further test has as its target HLA-B*15:01. The test is described as above.
Another test concerns the target HLA-B*15:17. Described as above.
Another test addresses HLA-B*18:01. The description is as above. The settings on record: source organism: Marburg virus - Musoke, Kenya, 1980.
A further test concerns the target HLA-B*27:05. The test is described as above.
A further test addresses HLA-B*40:01. The test is described as above. The settings on record: source organism: Marburg virus - Musoke, Kenya, 1980.
The target of another test is HLA-B*46:01. The test is described as above.
Another test concerns the target HLA-B*48:01. The test is described as above.
The target in test [5] is HLA-B*57:01. Described as above.
Test [6] has as its target HLA-B*58:01. The description is as above.
Test [7] concerns the target HLA-B*57:01. Nature of the test: IEDB peptide-MHC binding, purified MHC/competitive/radioactivity; filed as Kd, often an IC50 or EC50 that approximates it; ≥ and ≤ were set here for values at or beyond the usual limits of such assays.
In another test the target is HLA-B*08:02. Nature of the test: IEDB peptide-MHC binding, purified MHC/direct/fluorescence; filed as Kd, often an IC50 or EC50 that approximates it; ≥ and ≤ were set here for values at or beyond the usual limits of such assays. To be noted: source organism: Orthomarburgvirus marburgense.
For the next test, the target named is HLA-B*15:09. The description is as above. The settings on record: source organism: Orthomarburgvirus marburgense.
For a further test, the target named is HLA-B*39:01. The description is as above. To be noted: source organism: Orthomarburgvirus marburgense.
Test [8] concerns the target HLA-A*02:01. Put plainly: IEDB peptide-MHC binding, purified MHC/competitive/fluorescence; filed as Kd, often an IC50 or EC50 that approximates it; ≥ and ≤ were set here for values at or beyond the usual limits of such assays. The settings on record: source organism: Orthomarburgvirus marburgense.
A further test deals with HLA-A*02:06. Described as above. The settings on record: source organism: Orthomarburgvirus marburgense.
In test [9] the target is HLA-A*11:01. Described as above. The settings on record: source organism: Orthomarburgvirus marburgense.
Test [10] addresses HLA-A*26:01. The description is as above. To be noted: source organism: Orthomarburgvirus marburgense.
In test [11] the target is HLA-A*26:02. The test is described as above. To be noted: source organism: Orthomarburgvirus marburgense.
In the next test the target is HLA-A*30:01. Described as above. To be noted: source organism: Orthomarburgvirus marburgense.
The target in test [12] is HLA-B*58:01. Nature of the test: IEDB peptide-MHC binding, purified MHC/competitive/radioactivity; filed as Kd, often an IC50 or EC50 that approximates it; ≥ and ≤ were set here for values at or beyond the usual limits of such assays.
The next test deals with HLA-B*35:01. Described as above. The settings on record: source organism: Dengue virus 4 Philippines/H241/1956.
The target in the next test is HLA-B*53:01. The test is described as above. To be noted: source organism: Dengue virus 4 Philippines/H241/1956.
A further test has as its target HLA-A*24:03. Put plainly: IEDB peptide-MHC binding, purified MHC/direct/fluorescence; filed as Kd, often an IC50 or EC50 that approximates it; ≥ and ≤ were set here for values at or beyond the usual limits of such assays. To be noted: source organism: Mycobacterium tuberculosis.
The next test concerns the target HLA-C*05:01. Described as above. The settings on record: source organism: Mycobacterium tuberculosis C.
Setting [13] is: source organism: Marburg virus - Musoke, Kenya, 1980.
The mark [14] stands for this setting: source organism: Ravn virus - Ravn, Kenya, 1987.
The mark [15] stands for this setting: source organism: Dengue virus 4 Philippines/H241/1956.
Setting [16] is: source organism: Lake Victoria marburgvirus - Popp.
Where [17] appears, read: source organism: Orthomarburgvirus marburgense.
The mark [18] stands for this setting: source organism: Dengue virus 1 Brazil/97-11/1997.
Setting [19] is: source organism: Dengue virus 3 Martinique/1243/1999.

One may read the Kd as the concentration at which binding is half-saturated.

Turning to CVFKFIVAK, the Kd was at least 20 µM in the test with HLA-A*01:01 (setting [13]); at least 20 µM in the test with HLA-A*02:01 [1]; 0.391 µM in the test with HLA-A*03:01; 0.031 µM with HLA-A*11:01 [2]; at least 20 µM with HLA-A*26:01 [3]; at least 20 µM with HLA-A*26:02 [4]. Also, the Kd is at least 20 µM with HLA-A*26:03 (setting [14]); 0.275 µM in the test with HLA-A*31:01 (setting [13]); at least 20 µM in the test with HLA-A*68:02 (setting [13]); at least 20 µM with HLA-A*69:01 (setting [13]); at least 20 µM with HLA-B*07:02 (setting [13]); at least 20 µM in the test with HLA-B*08:01. Moreover, the Kd in the test with HLA-B*08:03 (setting [14]), with HLA-B*15:01 (setting [13]), with HLA-B*15:17 (setting [13]), in the test with HLA-B*18:01, with HLA-B*27:05 (setting [13]) and in the test with HLA-B*40:01 was at least 20 µM in each case. For the same sequence, the Kd in the test with HLA-B*46:01 (setting [13]), with HLA-B*48:01 (setting [13]), in the test with HLA-B*57:01 [5] (setting [13]) and with HLA-B*58:01 [6] (setting [13]) was at least 20 µM in each case.
As for RTSCLQKQSH, in the test with HLA-B*57:01 [7] (setting [15]), the Kd worked out at 0.61 µM.
Consider FLMRNAIQY, for which the Kd is 0.0372 µM in the test with HLA-A*01:01 (setting [16]); at least 20 µM with HLA-A*26:03 (setting [17]); at least 20 µM with HLA-A*31:01 (setting [16]); at least 20 µM with HLA-A*68:02 (setting [16]); at least 20 µM with HLA-A*69:01 (setting [16]); at least 20 µM in the test with HLA-B*07:02 (setting [16]). Further, the Kd with HLA-B*08:02 is at least 20 µM; with HLA-B*08:03 (setting [17]) it was at least 20 µM; in the test with HLA-B*15:01 (setting [16]), 0.188 µM; with HLA-B*15:09, at least 20 µM; with HLA-B*15:17 (setting [16]), 0.157 µM; with HLA-B*27:05 (setting [16]) it was at least 20 µM. Moreover, the dissociation constant (Kd) with HLA-B*39:01 is at least 20 µM; with HLA-B*46:01 (setting [16]) it was 4.14 µM; in the test with HLA-B*48:01 (setting [16]), at least 20 µM; with HLA-B*57:01 [5] (setting [16]), at least 20 µM; with HLA-B*58:01 [6] (setting [16]), at least 20 µM; with HLA-A*02:01 [8], 0.254 µM. In addition, the Kd with HLA-A*02:06 was 2.27 µM; with HLA-A*11:01 [9] it was 3.87 µM; in the test with HLA-A*26:01 [10] it was 2.58 µM; with HLA-A*26:02 [11], 1.92 µM; with HLA-A*30:01, 2.77 µM.
Turning to KTSAGVNMCT, the Kd in the test with HLA-B*57:01 [7] (setting [18]) is 1.13 µM; with HLA-B*58:01 [12] (setting [18]) it was 4.52 µM.
With KAAVEDEDF, the Kd with HLA-B*58:01 [12] (setting [19]) is 0.0766 µM.
As to MAILGETAW, the Kd was 0.102 µM with HLA-B*35:01, 0.00705 µM with HLA-B*53:01, 0.0235 µM with HLA-B*57:01 [7] (setting [15]) and 0.00347 µM in the test with HLA-B*58:01 [12] (setting [15]).
As for LGKAYAQMW, in the test with HLA-B*57:01 [7] (setting [19]), the Kd is 0.207 µM.
Regarding LYDAVAALF, the dissociation constant Kd with HLA-A*24:03 was at most 0.0001 µM; with HLA-C*05:01, 0.073 µM.
In the case of AAVLLLVTHY, in the test with HLA-B*58:01 [12] (source organism: Dengue virus 3 Singapore/8120/1995), the dissociation constant (Kd) came to 4.14 µM.
Turning to TTRLENIMW, the Kd with HLA-B*57:01 [7] (setting [15]) was 0.0133 µM.
For the sequence PSVVETLEQM, the Kd with HLA-B*58:01 [12] (setting [18]) turned out to be 0.321 µM.
